{"source": "paper PMC8782670", "about": "“Production and Characterization of RNA Aptamers Specific for Amyloid Fibril Epitopes”", "molecular_target": "beta2-microglobulin, monomer at pH 3.6 (biotinylated, partially folded) (human, UniProt P61769 21-119)", "sequence (P61769 21-119)": "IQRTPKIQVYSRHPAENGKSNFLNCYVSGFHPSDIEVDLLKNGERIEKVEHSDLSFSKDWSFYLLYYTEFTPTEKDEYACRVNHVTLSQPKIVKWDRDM", "assay": "SPR; pH 3.6, 250 mM NaCl; apparent, 1:1 fit; SPR: Buffer A pH 3.6, 250 mM NaCl, 25 C, 0.5 uM RNA; dot blot: Buffer A pH 7.0, 1 M NaCl, 10 ug/ml BSA and yeast tRNA, 21 C (Buffer A composition not given)", "details": "protein: recombinant; tags: biotin; interrupted stem-loop (Mfold)", "data": [{"binder": "M-2 (structured_RNA) RNA: GGGCCAAGCUUGCAUGCCUGCAGUUGGUUACGCGUACAGUGAAACUCGGAAAGUUGAAGGGCCAAAUGGGAACGGUACCGAGCUCAGGUUCCC", "values": [{"measurement": "Kd", "result": "~10", "unit": "nM"}]}]}
